# Experimental data published in PMC9482650, “Quantitative fragmentomics allow affinity mapping of interactomes” (Nature Communications, 2022).
# T1: PDZD2_5, O15018
# T1 sequence (O15018 2617-2716, limits assumed, looked up): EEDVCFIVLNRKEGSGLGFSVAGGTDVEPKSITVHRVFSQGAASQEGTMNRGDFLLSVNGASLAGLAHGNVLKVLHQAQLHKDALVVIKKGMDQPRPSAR
# T2: USH1C_2, Q9Y6N9
# T2 sequence (Q9Y6N9 206-303, limits assumed, looked up): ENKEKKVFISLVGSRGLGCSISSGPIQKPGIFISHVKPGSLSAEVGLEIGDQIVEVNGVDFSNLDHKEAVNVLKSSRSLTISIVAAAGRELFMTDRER
# T3: NHERF1_2, O14745
# T3 sequence (O14745 149-244, limits assumed, looked up): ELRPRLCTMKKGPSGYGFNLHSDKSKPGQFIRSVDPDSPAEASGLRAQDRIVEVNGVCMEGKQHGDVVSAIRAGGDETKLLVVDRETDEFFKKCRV
# T4: MPDZ_6, O75970
# T4 sequence (O75970 1003-1099, limits assumed, looked up): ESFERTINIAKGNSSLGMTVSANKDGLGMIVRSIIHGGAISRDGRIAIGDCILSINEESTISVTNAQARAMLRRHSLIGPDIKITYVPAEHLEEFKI
# T5: PARD6B, Q9BYG5
# T5 sequence (Q9BYG5 152-260, limits assumed, looked up): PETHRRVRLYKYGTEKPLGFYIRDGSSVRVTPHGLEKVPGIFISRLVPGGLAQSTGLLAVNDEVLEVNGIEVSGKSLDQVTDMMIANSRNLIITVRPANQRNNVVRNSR
# T6: MPDZ_7, O75970
# T6 sequence (O75970 1146-1253, limits assumed, looked up): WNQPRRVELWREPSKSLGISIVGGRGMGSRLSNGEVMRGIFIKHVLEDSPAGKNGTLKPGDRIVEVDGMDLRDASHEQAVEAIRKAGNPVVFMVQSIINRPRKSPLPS
# T7: INTU, Q9ULD6
# T7 sequence (Q9ULD6 180-273, limits assumed, looked up): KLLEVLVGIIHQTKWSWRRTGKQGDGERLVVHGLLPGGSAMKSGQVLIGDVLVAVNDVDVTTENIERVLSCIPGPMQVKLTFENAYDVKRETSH
# T8: SHROOM3, Q8TF72
# T8 sequence (Q8TF72 20-120, limits assumed, looked up): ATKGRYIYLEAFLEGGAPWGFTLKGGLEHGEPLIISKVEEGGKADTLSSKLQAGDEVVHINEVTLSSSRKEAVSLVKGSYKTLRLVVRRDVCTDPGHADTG
# T9: PTPN13_4, Q12923
# T9 sequence (Q12923 1783-1878, limits assumed, looked up): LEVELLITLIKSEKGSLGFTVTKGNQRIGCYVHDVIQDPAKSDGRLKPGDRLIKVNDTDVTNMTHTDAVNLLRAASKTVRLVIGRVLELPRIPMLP
# T10: USH1C_3, Q9Y6N9
# T10 sequence (Q9Y6N9 447-547, limits assumed, looked up): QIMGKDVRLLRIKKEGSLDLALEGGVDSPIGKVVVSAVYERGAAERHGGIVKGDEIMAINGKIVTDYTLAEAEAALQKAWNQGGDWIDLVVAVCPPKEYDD
# T11: SHANK2, Q9UPX8
# T11 sequence (Q9UPX8 621-730, limits assumed, looked up): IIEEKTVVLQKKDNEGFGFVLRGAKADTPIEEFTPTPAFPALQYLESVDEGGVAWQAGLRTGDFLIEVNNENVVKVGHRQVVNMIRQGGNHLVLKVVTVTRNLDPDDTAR
# T12: PTPN4, P29074
# T12 sequence (P29074 512-599, limits assumed, looked up): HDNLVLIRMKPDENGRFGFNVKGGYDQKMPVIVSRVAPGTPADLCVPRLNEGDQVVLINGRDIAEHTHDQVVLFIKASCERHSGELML
# Molecular target: MAGI3_3, Q5TCQ9
# Sequence (Q5TCQ9 572-655): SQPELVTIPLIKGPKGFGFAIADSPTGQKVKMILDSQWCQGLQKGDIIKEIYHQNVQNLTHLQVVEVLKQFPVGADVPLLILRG
# Experiment: holdup assay
# Design: key: below the threshold = too weak to quantify, mostly under pKd 3.1 to 4
# Details: plain residues with an end cap or a label only (N-terminal biotin on a linker: ttds)
row,Binder,pKd
1,"SSLQSLETSV [ATP2B4, P23634]",below the threshold

# Molecular target: T1, PDZD2_5, O15018
# Experiment: holdup assay
# Design: key: below the threshold = too weak to quantify, mostly under pKd 3.1 to 4
# Details: plain residues with an end cap or a label only (N-terminal biotin on a linker: ttds)
row,Binder,pKd
1,"SKPTRRETEV [HPV35-E6, P27228]",3.77
2,"SSLQSLETSV [ATP2B4, P23634]",below the threshold

# Molecular target: PARD3B_2, Q8TEW8
# Sequence (Q8TEW8 376-471): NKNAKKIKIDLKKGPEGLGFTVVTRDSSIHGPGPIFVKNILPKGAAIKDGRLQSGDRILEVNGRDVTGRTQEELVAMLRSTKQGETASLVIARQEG
# Experiment: holdup assay
# Design: key: below the threshold = too weak to quantify, mostly under pKd 3.1 to 4
# Details: plain residues with an end cap or a label only (N-terminal biotin on a linker: ttds)
row,Binder,pKd
1,"SKPTRRETEV [HPV35-E6, P27228]",below the threshold
2,"SSLQSLETSV [ATP2B4, P23634]",below the threshold

# Molecular target: DLG2_1, Q15700
# Experiment: holdup assay
# Design: key: below the threshold = too weak to quantify, mostly under pKd 3.1 to 4
# Details: plain residues with an end cap or a label only (N-terminal biotin on a linker: ttds)
row,Binder,pKd
1,"SKPTRRETEV [HPV35-E6, P27228]",4.91
2,"SSLQSLETSV [ATP2B4, P23634]",4.94

# Molecular target: CNKSR3, Q6P9H4
# Sequence (Q6P9H4 203-303): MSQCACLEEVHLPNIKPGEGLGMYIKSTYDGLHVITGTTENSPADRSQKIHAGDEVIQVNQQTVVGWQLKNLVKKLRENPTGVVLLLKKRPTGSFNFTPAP
# Experiment: holdup assay
# Design: key: below the threshold = too weak to quantify, mostly under pKd 3.1 to 4
# Details: plain residues with an end cap or a label only (N-terminal biotin on a linker: ttds)
row,Binder,pKd
1,"SKPTRRETEV [HPV35-E6, P27228]",3.57
2,"SSLQSLETSV [ATP2B4, P23634]",below the threshold

# Molecular target: SCRIB_4, Q14160
# Sequence (Q14160 1095-1204): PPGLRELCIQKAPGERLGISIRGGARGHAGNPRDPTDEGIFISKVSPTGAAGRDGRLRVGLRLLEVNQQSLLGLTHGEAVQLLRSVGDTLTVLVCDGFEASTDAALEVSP
# Experiment: holdup assay
# Design: key: below the threshold = too weak to quantify, mostly under pKd 3.1 to 4
# Details: plain residues with an end cap or a label only (N-terminal biotin on a linker: ttds)
row,Binder,pKd
1,"SKPTRRETEV [HPV35-E6, P27228]",3.78
2,"SSLQSLETSV [ATP2B4, P23634]",4.38

# Molecular target: T2, USH1C_2, Q9Y6N9
# Experiment: holdup assay
# Design: key: below the threshold = too weak to quantify, mostly under pKd 3.1 to 4
# Details: plain residues with an end cap or a label only (N-terminal biotin on a linker: ttds)
row,Binder,pKd
1,"SSLQSLETSV [ATP2B4, P23634]",below the threshold

# Molecular target: T3, NHERF1_2, O14745
# Experiment: holdup assay
# Design: key: below the threshold = too weak to quantify, mostly under pKd 3.1 to 4
# Details: plain residues with an end cap or a label only (N-terminal biotin on a linker: ttds)
row,Binder,pKd
1,"SKPTRRETEV [HPV35-E6, P27228]",below the threshold
2,"SSLQSLETSV [ATP2B4, P23634]",below the threshold

# Molecular target: RIMS2, Q9UQ26
# Sequence (Q9UQ26 637-758): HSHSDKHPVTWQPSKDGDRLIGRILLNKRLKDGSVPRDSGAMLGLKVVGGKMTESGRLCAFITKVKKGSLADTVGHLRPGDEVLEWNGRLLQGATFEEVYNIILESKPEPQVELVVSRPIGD
# Experiment: holdup assay
# Design: key: below the threshold = too weak to quantify, mostly under pKd 3.1 to 4
# Details: plain residues with an end cap or a label only (N-terminal biotin on a linker: ttds)
row,Binder,pKd
1,"SKPTRRETEV [HPV35-E6, P27228]",below the threshold
2,"SSLQSLETSV [ATP2B4, P23634]",below the threshold

# Molecular target: PDLIM4, P50479
# Sequence (P50479 1-83): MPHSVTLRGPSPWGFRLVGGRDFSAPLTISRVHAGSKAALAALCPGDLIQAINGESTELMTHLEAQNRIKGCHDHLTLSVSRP
# Experiment: holdup assay
# Design: key: below the threshold = too weak to quantify, mostly under pKd 3.1 to 4
# Details: plain residues with an end cap or a label only (N-terminal biotin on a linker: ttds)
row,Binder,pKd
1,"SKPTRRETEV [HPV35-E6, P27228]",4.16
2,"SSLQSLETSV [ATP2B4, P23634]",below the threshold

# Molecular target: MAGI1_6, Q96QZ7
# Sequence (Q96QZ7 1146-1238): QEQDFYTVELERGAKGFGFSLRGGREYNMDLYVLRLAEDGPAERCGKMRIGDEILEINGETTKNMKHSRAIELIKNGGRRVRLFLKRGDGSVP
# Experiment: holdup assay
# Design: key: below the threshold = too weak to quantify, mostly under pKd 3.1 to 4
# Details: plain residues with an end cap or a label only (N-terminal biotin on a linker: ttds)
row,Binder,pKd
1,"SKPTRRETEV [HPV35-E6, P27228]",3.66
2,"SSLQSLETSV [ATP2B4, P23634]",4.49

# Molecular target: T4, MPDZ_6, O75970
# Experiment: holdup assay
# Design: key: below the threshold = too weak to quantify, mostly under pKd 3.1 to 4
# Details: plain residues with an end cap or a label only (N-terminal biotin on a linker: ttds)
row,Binder,pKd
1,"SKPTRRETEV [HPV35-E6, P27228]",below the threshold
2,"SSLQSLETSV [ATP2B4, P23634]",below the threshold

# Molecular target: T5, PARD6B, Q9BYG5
# Experiment: holdup assay
# Design: key: below the threshold = too weak to quantify, mostly under pKd 3.1 to 4
# Details: plain residues with an end cap or a label only (N-terminal biotin on a linker: ttds)
row,Binder,pKd
1,"SKPTRRETEV [HPV35-E6, P27228]",below the threshold
2,"SSLQSLETSV [ATP2B4, P23634]",below the threshold

# Molecular target: TJP1_1, Q07157
# Sequence (Q07157 18-120): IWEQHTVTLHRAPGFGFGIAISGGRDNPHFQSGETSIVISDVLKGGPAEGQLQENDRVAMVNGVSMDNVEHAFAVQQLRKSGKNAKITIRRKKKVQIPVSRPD
# Experiment: holdup assay
# Design: key: below the threshold = too weak to quantify, mostly under pKd 3.1 to 4
# Details: plain residues with an end cap or a label only (N-terminal biotin on a linker: ttds)
row,Binder,pKd
1,"SKPTRRETEV [HPV35-E6, P27228]",below the threshold
2,"SSLQSLETSV [ATP2B4, P23634]",below the threshold

# Molecular target: T6, MPDZ_7, O75970
# Experiment: holdup assay
# Design: key: below the threshold = too weak to quantify, mostly under pKd 3.1 to 4
# Details: plain residues with an end cap or a label only (N-terminal biotin on a linker: ttds)
row,Binder,pKd
1,"SKPTRRETEV [HPV35-E6, P27228]",below the threshold
2,"SSLQSLETSV [ATP2B4, P23634]",below the threshold

# Molecular target: T7, INTU, Q9ULD6
# Experiment: holdup assay
# Design: key: below the threshold = too weak to quantify, mostly under pKd 3.1 to 4
# Details: plain residues with an end cap or a label only (N-terminal biotin on a linker: ttds)
row,Binder,pKd
1,"SKPTRRETEV [HPV35-E6, P27228]",below the threshold
2,"SSLQSLETSV [ATP2B4, P23634]",below the threshold

# Molecular target: T8, SHROOM3, Q8TF72
# Experiment: holdup assay
# Design: key: below the threshold = too weak to quantify, mostly under pKd 3.1 to 4
# Details: plain residues with an end cap or a label only (N-terminal biotin on a linker: ttds)
row,Binder,pKd
1,"SKPTRRETEV [HPV35-E6, P27228]",below the threshold
2,"SSLQSLETSV [ATP2B4, P23634]",below the threshold

# Molecular target: T9, PTPN13_4, Q12923
# Experiment: holdup assay
# Design: key: below the threshold = too weak to quantify, mostly under pKd 3.1 to 4
# Details: plain residues with an end cap or a label only (N-terminal biotin on a linker: ttds)
row,Binder,pKd
1,"SKPTRRETEV [HPV35-E6, P27228]",below the threshold
2,"SSLQSLETSV [ATP2B4, P23634]",below the threshold

# Molecular target: T10, USH1C_3, Q9Y6N9
# Experiment: holdup assay
# Design: key: below the threshold = too weak to quantify, mostly under pKd 3.1 to 4
# Details: plain residues with an end cap or a label only (N-terminal biotin on a linker: ttds)
row,Binder,pKd
1,"SKPTRRETEV [HPV35-E6, P27228]",below the threshold
2,"SSLQSLETSV [ATP2B4, P23634]",below the threshold

# Molecular target: IL16_2, Q14005
# Sequence (Q14005 350-450): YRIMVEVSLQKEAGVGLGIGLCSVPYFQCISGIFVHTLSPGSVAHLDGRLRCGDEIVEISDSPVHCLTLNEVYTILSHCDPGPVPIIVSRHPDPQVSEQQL
# Experiment: holdup assay
# Design: key: below the threshold = too weak to quantify, mostly under pKd 3.1 to 4
# Details: plain residues with an end cap or a label only (N-terminal biotin on a linker: ttds)
row,Binder,pKd
1,"SKPTRRETEV [HPV35-E6, P27228]",3.57
2,"SSLQSLETSV [ATP2B4, P23634]",below the threshold

# Molecular target: MAGI1_3, Q96QZ7
# Sequence (Q96QZ7 638-725): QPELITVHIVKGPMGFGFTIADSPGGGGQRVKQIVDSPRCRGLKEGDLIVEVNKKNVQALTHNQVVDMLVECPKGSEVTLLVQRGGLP
# Experiment: holdup assay
# Design: key: below the threshold = too weak to quantify, mostly under pKd 3.1 to 4
# Details: plain residues with an end cap or a label only (N-terminal biotin on a linker: ttds)
row,Binder,pKd
1,"SKPTRRETEV [HPV35-E6, P27228]",4.09
2,"SSLQSLETSV [ATP2B4, P23634]",4.44

# Molecular target: NHERF2_1, Q15599
# Sequence (Q15599 9-91): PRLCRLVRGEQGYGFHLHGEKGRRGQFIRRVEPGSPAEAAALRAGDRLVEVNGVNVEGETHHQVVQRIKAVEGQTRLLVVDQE
# Experiment: holdup assay
# Design: key: below the threshold = too weak to quantify, mostly under pKd 3.1 to 4
# Details: plain residues with an end cap or a label only (N-terminal biotin on a linker: ttds)
row,Binder,pKd
1,"SKPTRRETEV [HPV35-E6, P27228]",3.77
2,"SSLQSLETSV [ATP2B4, P23634]",below the threshold

# Molecular target: MAGI1_4, Q96QZ7
# Sequence (Q96QZ7 other isoform, or with tags, fused parts or gaps): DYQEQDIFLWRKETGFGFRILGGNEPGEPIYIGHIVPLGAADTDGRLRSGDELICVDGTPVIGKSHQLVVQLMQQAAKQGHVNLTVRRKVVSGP
# Experiment: holdup assay
# Design: key: below the threshold = too weak to quantify, mostly under pKd 3.1 to 4
# Details: plain residues with an end cap or a label only (N-terminal biotin on a linker: ttds)
row,Binder,pKd
1,"SKPTRRETEV [HPV35-E6, P27228]",below the threshold
2,"SSLQSLETSV [ATP2B4, P23634]",below the threshold

# Molecular target: T11, SHANK2, Q9UPX8
# Experiment: holdup assay
# Design: key: below the threshold = too weak to quantify, mostly under pKd 3.1 to 4
# Details: plain residues with an end cap or a label only (N-terminal biotin on a linker: ttds)
row,Binder,pKd
1,"SKPTRRETEV [HPV35-E6, P27228]",below the threshold
2,"SSLQSLETSV [ATP2B4, P23634]",below the threshold

# Molecular target: T12, PTPN4, P29074
# Experiment: holdup assay
# Design: key: below the threshold = too weak to quantify, mostly under pKd 3.1 to 4
# Details: plain residues with an end cap or a label only (N-terminal biotin on a linker: ttds)
row,Binder,pKd
1,"SKPTRRETEV [HPV35-E6, P27228]",4.03
2,"SSLQSLETSV [ATP2B4, P23634]",4.88

# Molecular target: RIMS1, Q86UR5
# Sequence (Q86UR5 584-692): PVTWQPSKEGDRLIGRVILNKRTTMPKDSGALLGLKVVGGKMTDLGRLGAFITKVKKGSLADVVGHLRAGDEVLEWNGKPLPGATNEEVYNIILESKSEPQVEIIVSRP
# Experiment: holdup assay
# Design: key: below the threshold = too weak to quantify, mostly under pKd 3.1 to 4
# Details: plain residues with an end cap or a label only (N-terminal biotin on a linker: ttds)
row,Binder,pKd
1,"SKPTRRETEV [HPV35-E6, P27228]",below the threshold
2,"SSLQSLETSV [ATP2B4, P23634]",below the threshold
